The record followed here is patent US20120245092A1 (ECOLE NORMALE SUPERIEURE DE LYON, published 2012).

The target of experiment [1] is T1, CNA beta C ter-delta 1 (amino acids 378 to 500), two-hybrid prey (human, UniProt P16298 378-500).
T1 construct: also called CnAβCter Δ1
As to the kind of experiment: yeast two-hybrid mating assay. As to the method: (§1) The 5′ end of RH6 (upper case) matches part of the HA epitope tag and the 5′ ends of RH4, RH3 and RH7 (upper case) match the 5′ extremity of the ADH terminator. The PCR reactions was performed using pCMV-SPORT6-CnAβ as a template. […] MB210a was co-transformed with the PCR products and EcoRI/XhoI-cut pJG4-5. The prey plasmids were retrieved from the transformants (21) and the homologous recombination products were checked by sequencing. MB210a was also transformed with positive and negative controls of interaction. […] The yeast two-hybrid mating assays were performed as described (21).

Experiment [2] has as its target T2, CNA beta C ter-delta 2 (amino acids 378 to 456), two-hybrid prey (human, UniProt P16298 378-456).
T2 construct: also called CnAβCter Δ2
As to the kind of experiment: yeast two-hybrid mating assay. The method, then:
as §1

In experiment [3] the target is T3, CNA beta C ter-CaM (amino acids 378 to 423), two-hybrid prey (human, UniProt P16298 378-423).
T3 construct: also called CnAβCter CaM
The experiment in a line: yeast two-hybrid mating assay. As to the method: as §1

Experiment [4] addresses T4, CNA construct CNA11, two-hybrid prey (Mus musculus (Mouse), UniProt P48453 384-495).
T4 construct: not shown: HA-pJG4-5 prey fusion moiety
The experiment in a line: yeast two-hybrid assay (FIG. 14).

Experiment [5] deals with T5, CNAβ C-terminal fragment (calcineurin A beta clone selected from the testes cDNA library, two-hybrid prey) (human, UniProt P16298 378-524).
T5 construct: Truncated protein; The truncations made from it start at amino acid 378; also called CNA beta C-terminal fragment
The experiment in a line: yeast two-hybrid assay (FIG. 9). The source says: (§2) CNA beta and gamma C-Terminal fragments and NS5A-TP2 were cloned in three different vectors (pSH18-34, pJK103 and pRB18-40). These three plasmids differ from each other in the level of sensitivity of their promoter, pSH18-34 having the highest sensitivity and pRB18-40 having the lowest.

For experiment [6], the target named is T6, CNAγ C-terminal fragment (calcineurin A gamma clone selected from the testes cDNA library, two-hybrid prey) (human, UniProt P48454 365-512).
T6 construct: Truncated protein; also called CNA gamma C-terminal fragment
T6 sequence (P48454 365-512): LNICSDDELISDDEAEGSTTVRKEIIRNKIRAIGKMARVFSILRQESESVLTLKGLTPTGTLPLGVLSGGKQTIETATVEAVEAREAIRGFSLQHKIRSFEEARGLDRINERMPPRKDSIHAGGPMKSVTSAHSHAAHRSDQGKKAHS
The experiment in a line: yeast two-hybrid assay (FIG. 9).
From the text: as §2

Experiment [7] has as its target T7, NS5A-TP2 (two-hybrid prey) (human, UniProt Q7Z4H3 1-204).
T7 sequence: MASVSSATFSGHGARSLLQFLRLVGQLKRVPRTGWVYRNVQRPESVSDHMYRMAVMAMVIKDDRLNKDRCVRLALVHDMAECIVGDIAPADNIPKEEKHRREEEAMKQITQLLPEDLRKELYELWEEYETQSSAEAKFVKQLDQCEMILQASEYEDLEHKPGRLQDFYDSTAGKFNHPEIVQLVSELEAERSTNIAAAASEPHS
The experiment in a line: yeast two-hybrid assay, higher sensitivity (FIG. 14).

In experiment [8] the target is T8, CNA construct CNA3, two-hybrid prey (Homo sapiens (Human), UniProt P16298 384-524).
T8 construct: not shown: HA-pJG4-5 prey fusion moiety
The experiment is described as above.

In experiment [9] the target is T9, CNA construct CNA4, two-hybrid prey (Homo sapiens (Human), UniProt P16298 414-524).
T9 construct: not shown: HA-pJG4-5 prey fusion moiety
Described as above.

The target in experiment [10] is T10, CNA construct CNA7, two-hybrid prey (Homo sapiens (Human), UniProt P16298 1-413).
T10 construct: not shown: HA-pJG4-5 prey fusion moiety
The experiment is described as above.

For experiment [11], the target named is T11, CNA construct CNA8, two-hybrid prey (Homo sapiens (Human), UniProt P16298 1-388).
T11 construct: not shown: HA-pJG4-5 prey fusion moiety
Described as above.

In experiment [12] the target is T12, CNA construct CNA9, two-hybrid prey (Rattus norvegicus (Rat), UniProt P20651 342-419).
T12 construct: not shown: HA-pJG4-5 prey fusion moiety
Described as above.

In experiment [13] the target is T13, CNA construct CNA10, two-hybrid prey.
T13 construct: not shown: HA-pJG4-5 prey fusion moiety
The description is as above.

For experiment [14], the target named is T4, CNA construct CNA11, two-hybrid prey. Described as above.
In experiment [15] the target is T5, CNAβ C-terminal fragment (calcineurin A …). The experiment in a line: yeast two-hybrid mating assay. The method, then: as §1
In experiment [16] the target is T6, CNAγ C-terminal fragment (calcineurin A …). As to the kind of experiment: yeast two-hybrid mating assay. The method, then: as §1
Experiment [17] has as its target T7, NS5A-TP2 (two-hybrid prey). The experiment in a line: yeast two-hybrid assay (FIG. 9).
From the text: as §2

B1: LexA-R5G42 fusion protein (peptide aptamer R5G42 as two-hybrid bait) (designed binder, not shown: large carriers)
chain: MVKQIESKTAFQEALDAAGDKLVVVDFSATWCGPSAVTFAVCALGPCKMIKPFFHSLSEKYSNVIFLEVDVDDCQDVASECEVKCMPTFQFFKKGQKVGEFSGANKEKLEATINELV
notes: also called LexA-R5G42 bait protein
For B1, the binding result is given as “binds” in experiment [1], “no binding” in experiment [2], “no binding” in experiment [3] and “binds” in experiment [4].

B2: R5G42 mutant N9 (LexA fusion, two-hybrid bait) (designed binder)
chain: MVKQIESKTAFQEALDAAGDKLVVVDFSAAWCGPSAVTFAVCALGPCKMIKPFFHSLSEKYSNVIFLEVDVDDCQDVASECEVKCMPTFQFFKKGQKVGEFSGANKEKLEATINELV
notes: One amino acid change against R5G42; also called R5G42-N9; not shown: LexA fusion partner (pGILDA bait)
As for B2, the binding result is on record as “no binding” in experiment [5], “no binding” in experiment [6] and “binds” in experiment [4].

B3: LexA-R5G52 fusion protein (peptide aptamer R5G52 as two-hybrid bait) (designed binder)
chain: MVKQIESKTAFQEALDAAGDKLVVVDFSATWCGPIQSPPESPTGGPCKMIKPFFHSLSEKYSNVIFLEVDVDDCQDVASECEVKCMPTFQFFKKGQKVGEFSGANKEKLEATINELV
notes: also called LexA-R5G52 bait protein; not shown: LexA (E. coli), fusion partner from pGILDA
Regarding B3, the binding result in [7], in experiment [8], in experiment [9], in experiment [10], in [11] and in experiment [12] was “no binding” throughout. Further, the binding result in experiment [13] and in [14] was “no binding” in each case.

B4: LexA-R7G44 fusion protein (peptide aptamer R7G44 as two-hybrid bait) (designed binder)
chain: MVKQIESKTAFQEALDAAGDKLVVVDFSATWCGPHQSTIGVAEFGPCKMIKPFFHSLSEKYSNVIFLEVDVDDCQDVASECEVKCMPTFQFFKKGQKVGEFSGANKEKLEATINELV
notes: Control aptamer; not shown: LexA (E. coli), fusion partner from pGILDA
Consider B4, for which the binding result in [15] and in experiment [16] was “no binding” each time.

B5: R5G42 mutant C7 (LexA fusion, two-hybrid bait) (designed binder)
chain: MVKQIESKTAFQEALDAAGDKPVVVDFSATWCGPSAVTFAVCALGPCKMIKPFFHSLSEKYSNVIFLEVDVDDCQDVASECEVKCMPTFQFFKKGQKVGEFSGANKEKLEATINELV
notes: One amino acid change against R5G42; also called R5G42-C7; not shown: LexA fusion partner (pGILDA bait)
Take B5: the binding result is listed as “no binding” in experiment [17] and “binds” in experiment [4].

B6: R5G42 mutant C8 (LexA fusion, two-hybrid bait) (designed binder)
chain: MVKQIESKTAFQEALDAAGDKLVVVDFSATWCGPSAVTIAVCALGPCKMIKPFFHSLSEKYSNVIFLEVDVDDCQDVASECEVKCMPTFQFFKKGQKVGEFSGANKEKLEATINELV
notes: One amino acid change against R5G42; also called R5G42-C8; not shown: LexA fusion partner (pGILDA bait)
For the molecule B6, the binding result in experiment [17] is listed as “no binding”; in [4] it was “binds”.

B7: R5G42 mutant C2 (LexA fusion, two-hybrid bait) (designed binder)
chain: MVKQIESKTAFQEALDAAGDKLVVVDFSATWCGPSAVTFAVCALGPCKMIKLFFHSLSEKYSNVIFLEVDVDDCQDVASECEVKCMPTFQFFKKGQKVGEFSGANKEKLEATINELV
notes: One amino acid change against R5G42; also called R5G42-C2; not shown: LexA fusion partner (pGILDA bait)
For the molecule B7, the binding result in experiment [17] is “no binding”; in [4] it was “binds”.
